The supplement of paper PMC10126150
± gives the standard deviation of the averaged measurements.
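Note: ATP exposure 15 min at 22 °C before imaging.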

Each sequence was assayed on ATP (assay: switch fluorescence ratio, 500 uM ATP over buffer (Cy3 cluster intensity, sum of 5 cycles each) (fold (ratio)); higher = stronger signal-on switching upon ATP binding; sequences stand for … in TCGTCGGCAGCGTCAGATGTGTATAAGAGACAGTTTTTTTTTTTTTTTTTTTTTTTTT…TC). Details: aptamer strand: ATP DNA aptamer (quencher-CACCTGGGGGAGTATTGCGGAGGAAGG + anchor), 100 nM annealed; ATP concentration: 500 uM.
In short: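 Clusters with intensities outside 100-1000 RFU were excluded. The remaining Cy3-labelled switching-strand clusters on a modified Illumina MiSeq flow-cell had been annealed to 100 nM quencher-labelled ATP aptamer and imaged in selection buffer, then after 15 min with 500 uM ATP at 22 °C, for five cycles separated by NaOH stripping and re-annealing. The fluorescence ratio, averaged per switch-domain sequence, is each cluster's summed target-cycle Cy3 intensity over its summed buffer-cycle Cy3 intensity.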
In the case of TTTGTTTGAT, the switch fluorescence ratio is reported as 0.999 ± 0.034. AGAGAGAAAG gave a switch fluorescence ratio of 0.97 ± 0.025. Sequence ACTGAGGCCT has a switch fluorescence ratio of 1.05 ± 0.045. CAAGGGCCAG was tested, and the switch fluorescence ratio was 0.973 ± 0.07. For TCTTTCAAGT, the switch fluorescence ratio was 0.994 ± 0.011. For TTGATGCGTG, the switch fluorescence ratio was 0.9661 ± 0.0063. GCACCAAGAA showed a switch fluorescence ratio of 1.03 ± 0.014. CGGGGGCAGA was tested, and the switch fluorescence ratio was 1 ± 0.023. For AGCACGGGTA, the switch fluorescence ratio was 1.008 ± 0.0055. Work on GTTTGGGATT yielded a switch fluorescence ratio of 1 ± 0.024. GATGGGTTTT was tested, and the switch fluorescence ratio was 0.997 ± 0.062. TCGGGGGCGT was tested, and the switch fluorescence ratio was 1.03 ± 0.038. AGGGTAGCTT gave a switch fluorescence ratio of 0.999 ± 0.031. In the case of TCATTTGGTT, the switch fluorescence ratio is reported as 0.988 ± 0.042. Work on TTTTGGGTTT yielded a switch fluorescence ratio of 1.02 ± 0.086. Sequence GGATTACTAA has a switch fluorescence ratio of 0.99 ± 0.029. CTCCATATTA showed a switch fluorescence ratio of 1.057 ± 0.0068. For CGGCGTAGGG, the switch fluorescence ratio was 1.12 ± 0.15. For AAGCGAGGGG, the switch fluorescence ratio was 1.03 ± 0.047. With CCGAGTTAGG the switch fluorescence ratio was 1.068 ± 0.0066. GATACGTGTT was tested, and the switch fluorescence ratio was 0.998 ± 0.053. For ATTTTTGTGA, the switch fluorescence ratio was 0.98 ± 0.013. GGCTTTGAGG was tested, and the switch fluorescence ratio was 1.01 ± 0.019. In the case of TTATGATAGC, the switch fluorescence ratio is reported as 0.965 ± 0.044. Work on TAGGGTGCGT yielded a switch fluorescence ratio of 1 ± 0.027. TTTGGCCAAA was tested, and the switch fluorescence ratio was 1.05 ± 0.046. GGAATGAAGG gave a switch fluorescence ratio of 1 ± 0.0041. Sequence CGGTCGACGA has a switch fluorescence ratio of 1.01 ± 0.024. In the case of GTGTAACAGA, the switch fluorescence ratio is reported as 1 ± 0.013. For AGGAATTTGG, the switch fluorescence ratio was 0.978 ± 0.024. Sequence AGTTAGGACA has a switch fluorescence ratio of 1 ± 0.031. GATGGATAGG gave a switch fluorescence ratio of 0.9804 ± 0.0043. With AAATTAATTG the switch fluorescence ratio was 1.02 ± 0.036. In the case of TGGAAATCGT, the switch fluorescence ratio is reported as 1.07 ± 0.083. With GGGGTACAGG the switch fluorescence ratio was 1.005 ± 0.0055. TTATAAGTGT was tested, and the switch fluorescence ratio was 0.963 ± 0.035. TGGGGACGAC was tested, and the switch fluorescence ratio was 1.02 ± 0.063. In the case of TTGTTGTAGG, the switch fluorescence ratio is reported as 0.993 ± 0.041. TGAGATGGGG showed a switch fluorescence ratio of 0.99 ± 0.021. GGACAGTGAT was tested, and the switch fluorescence ratio was 1.01 ± 0.034. With TTCTATCGTT the switch fluorescence ratio was 1.01 ± 0.031. GTTTGAGTCT gave a switch fluorescence ratio of 1.01 ± 0.028. TTGCCGGGGC gave a switch fluorescence ratio of 0.998 ± 0.017. TTTAAAGTTT showed a switch fluorescence ratio of 0.99 ± 0.029. TTTCGGGTAT showed a switch fluorescence ratio of 1.05 ± 0.011. TCGGGTGAAC showed a switch fluorescence ratio of 0.983 ± 0.041. TTGTTAGATT was tested, and the switch fluorescence ratio was 0.994 ± 0.031. Work on CGCGAATATA yielded a switch fluorescence ratio of 1 ± 0.019. CGAGCATTGT was tested, and the switch fluorescence ratio was 1.16 ± 0.031. Work on TTAGTTTCTA yielded a switch fluorescence ratio of 0.99394 ± 0.00081. TGAGTTTGGC gave a switch fluorescence ratio of 0.9862 ± 0.0013. With GTTTAGGGTT the switch fluorescence ratio was 1.02 ± 0.018. In the case of AGTTGGGAAC, the switch fluorescence ratio is reported as 1.01 ± 0.015. Sequence ACTACAAGTT has a switch fluorescence ratio of 1 ± 0.026. With GTCGGCGTAG the switch fluorescence ratio was 1.03 ± 0.036. Sequence TTTTACGCAC has a switch fluorescence ratio of 1.81 ± 0.024. Sequence AATGGTATGG has a switch fluorescence ratio of 0.982 ± 0.024. With TATTATTTTT the switch fluorescence ratio was 0.998 ± 0.026. In the case of ACACCGGTTA, the switch fluorescence ratio is reported as 1.01 ± 0.035. Work on TGGAAAAGGA yielded a switch fluorescence ratio of 0.9626 ± 0.0095. Work on CGGCTATTAA yielded a switch fluorescence ratio of 1.044 ± 0.0086. Sequence GAAGAATGGT has a switch fluorescence ratio of 0.975 ± 0.013. GTCTAACTGT showed a switch fluorescence ratio of 0.994 ± 0.029. Work on GCGTGACCGC yielded a switch fluorescence ratio of 0.995 ± 0.04. Sequence CAAAGCGCTG has a switch fluorescence ratio of 0.986 ± 0.012. ATGCGTACTT was tested, and the switch fluorescence ratio was 1.01 ± 0.02. Work on CTATCACAGG yielded a switch fluorescence ratio of 2.01 ± 0.08. For ACTCTATTTG, the switch fluorescence ratio was 1.04 ± 0.025. For CCCAGCAGGT, the switch fluorescence ratio was 1.9 ± 0.18. AGGGGTGGAA was tested, and the switch fluorescence ratio was 0.975 ± 0.022. Work on TCGCTTTACT yielded a switch fluorescence ratio of 3.87 ± 0.81. For AGGCATTATA, the switch fluorescence ratio was 1.01 ± 0.013. In the case of TTTCTTAGTG, the switch fluorescence ratio is reported as 0.9622 ± 0.0086. Sequence AATGCGCCGT has a switch fluorescence ratio of 1.01 ± 0.022. Work on CAAAGAACTT yielded a switch fluorescence ratio of 1.01 ± 0.018. CTTAGGGCGG was tested, and the switch fluorescence ratio was 0.957 ± 0.027. TATGTTGGGG was tested, and the switch fluorescence ratio was 0.957 ± 0.018. With TGGGACAGGG the switch fluorescence ratio was 1.03 ± 0.088. With AATATTGGTA the switch fluorescence ratio was 1.01 ± 0.018. With CCAGGAGGAG the switch fluorescence ratio was 1 ± 0.027. CGGGATCTGT gave a switch fluorescence ratio of 1.01 ± 0.024. With TTGGGGAAAG the switch fluorescence ratio was 0.986 ± 0.038. With TGTTTTACGA the switch fluorescence ratio was 1.07 ± 0.043. Sequence ATCTATGTTT has a switch fluorescence ratio of 0.9872 ± 0.0041. For TATATATTTA, the switch fluorescence ratio was 0.988 ± 0.024. With CAAGTGCTTA the switch fluorescence ratio was 0.9578 ± 0.0081. With GGAGGGGCAA the switch fluorescence ratio was 1.24 ± 0.032. In the case of TTTGAGGGTG, the switch fluorescence ratio is reported as 1.07 ± 0.065. In the case of AACTAGATCG, the switch fluorescence ratio is reported as 1.02 ± 0.028. AGGTTGCGGG showed a switch fluorescence ratio of 1 ± 0.014. GAATTCTGAG was tested, and the switch fluorescence ratio was 1.02 ± 0.04. TCATTATTCT was tested, and the switch fluorescence ratio was 0.97 ± 0.012. With ATTTGACTTA the switch fluorescence ratio was 1.03 ± 0.015. Sequence TTTGTTTATA has a switch fluorescence ratio of 0.9992 ± 0.0034. Work on GAGGCGCATC yielded a switch fluorescence ratio of 1 ± 0.026. With GGGGCGTGTG the switch fluorescence ratio was 1.01 ± 0.014. With GCTGGAGGAC the switch fluorescence ratio was 0.996 ± 0.032. For TTAAAAAAAG, the switch fluorescence ratio was 1.01 ± 0.019. ATAATTTAGT showed a switch fluorescence ratio of 0.982 ± 0.028. TTGGGAGGGG was tested, and the switch fluorescence ratio was 1.04 ± 0.083.
